Data as given in paper PMC8196016.

Target: SARS-CoV-2 RBD trimer protein (SARS-CoV-2 | bacteriophage T4) (UniProt P0DTC2)
Assay: SEC; Superdex 200 Increase 10/300 GL; four peaks, peak 3 taken as the trimer by expected size and Western blotting under non-reducing conditions

Substance: SARS-CoV-2 RBD trimer protein (from UniProt P0DTC2 319-541) (domain or fragment)
- stoichiometry N: 3
